Test results reported in patent US20260108618A1.

What was measured:
Test in all cases: cell-based or functional assay
[1] = target: Neuraminidase of influenza B/Washington/02/2019 (Victoria) (influenza B virus B/Washington/02/2019 (Victoria))
[2] = target: Neuraminidase of influenza A/Hong Kong/2671/2019 (H3N2) (influenza A virus A/Hong Kong/2671/2019 (H3N2))
[3] = target: neuraminidase of influenza B/Malaysia/2506/2004 (Victoria) (Influenza B virus)
[4] = target: neuraminidase of influenza B/Florida/4/2006 (Yamagata) (Influenza B virus)
[5] = target: Neuraminidase of influenza B/Phuket/3073/2013 (Yamagata) (influenza B virus B/Phuket/3073/2013 (Yamagata))
[6] = target: Neuraminidase of influenza A/Hawaii/70/2019 (H1N1)pdm09 (influenza A virus A/Hawaii/70/2019 (H1N1)pdm09)
[7] = target: neuraminidase of influenza A/Hong Kong/1/1968 (H3N2) (Influenza A virus) (UniProt Q91MA2)
Chain of neuraminidase of influenza A/Hong Kong/1/1968 (H3N2) (Influenza A virus) (Q91MA2 whole entry): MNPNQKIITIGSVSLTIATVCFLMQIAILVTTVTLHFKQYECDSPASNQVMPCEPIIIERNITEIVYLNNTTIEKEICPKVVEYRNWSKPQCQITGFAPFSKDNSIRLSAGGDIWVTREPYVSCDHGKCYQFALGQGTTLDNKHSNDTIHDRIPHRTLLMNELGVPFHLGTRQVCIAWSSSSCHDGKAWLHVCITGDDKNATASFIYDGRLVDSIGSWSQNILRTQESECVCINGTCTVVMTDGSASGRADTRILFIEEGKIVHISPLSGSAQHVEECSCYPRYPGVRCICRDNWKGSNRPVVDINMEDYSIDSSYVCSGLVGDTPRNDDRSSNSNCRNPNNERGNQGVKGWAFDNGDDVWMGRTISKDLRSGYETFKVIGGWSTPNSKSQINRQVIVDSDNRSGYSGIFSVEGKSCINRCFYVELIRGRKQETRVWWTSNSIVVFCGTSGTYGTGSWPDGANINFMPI

[8] = target: neuraminidase of influenza A/CA/7/2009 (H1N1pdm) (Influenza A virus)

hIgG1 Fc (from UniProt P01857 84-329)
> 1000 nM: enzyme-linked lectin assay (ELLA) (IC50), fetuin substrate, live virus [1] | enzyme-linked lectin assay (ELLA) (IC50), fetuin substrate, live virus [2] | enzyme-linked lectin assay (ELLA) IC50, fetuin substrate, virus [3] | enzyme-linked lectin assay (ELLA) IC50, fetuin substrate, virus [4] | enzyme-linked lectin assay (ELLA) (IC50), fetuin substrate, live virus [5] | enzyme-linked lectin assay (ELLA) (IC50), fetuin substrate, live virus [6] | enzyme-linked lectin assay (ELLA) IC50, fetuin substrate, virus [7] | enzyme-linked lectin assay (ELLA) IC50, fetuin substrate, virus [8]
